Positions count from the first letter of the chain named.
B1: TCR1-2 (TCR, V domains shown)
V domain 1: GAVVSQHPSRVICKSGTSVKIECRSLDFQATTMFWYRQFPKKSLMLMATSNEGSKATYEQGVEKDKFLINHASLTLSTLTVTSAHPEDSSFYICSARYGEVAFFGQGTRLTVVE
V domain 2: GENVEQHPSTLSVQEGDSAVIKCTYSDSASNYFPWYKQELGKGPQLIIDIRSNVGEKKDQRIAVTLNKTAKHFSLHITETQPEDSAVYFCAASRDNNDMRFGAGTRLTVKP
notes: also called TCR having feature (B)
B2: TCR5-3 (TCR, V domains shown)
V domain 1: GVTQTPKFRVLKTGQSMTLLCAQDMNHEYMYWYRQDPGMGLRLIHYSVGEGTTAKGEVPDGYNVSRLKKQNFLLGLESAAPSQTSVYFCASSYSRDRGWSEAFFGQGTRLTVVE
V domain 2: AQKVTQAQTEISVVEKEDVTLDCVYETRDTTYYLFWYKQPPSGELVFLIRRNSFDEQNEISGRYSWNFQKSTSSFNFTITASQVVDSAVYFCALNVMNRDDKIIFGKGTRLHILP
notes: also called TCR having feature (G)
B3: TCR2-2 (TCR, V domains shown)
V domain 1: GAVVSQHPSRVICKSGTSVKIECRSLDFQATTMFWYRQFPKKSLMLMATSNEGSKATYEQGVEKDKFLINHASLTLSTLTVTSAHPEDSSFYICSARAGGDTFGSGTRLTVVE
V domain 2: AQSVTQLDSHVSVSEGTPVLLRCNYSSSYSPSLFWYVQHPNKGLQLLLKYTSAATLVKGINGFEAEFKKSETSFHLTKPSAHMSDAAEYFCVVSVNDYKLSFGAGTTVTVRA
notes: also called TCR having feature (D)
B4: TCR5-2 (TCR, V domains shown)
V domain 1: B3 V domain 1 with R97K, G99S, G100E, D101Q, T102Y, S105P, V112T
V domain 2: SQQGEEDPQALSIQEGENATMNCSYKTSINNLQWYRQNSGRGLVHLILIRSNEREKHSGRLRVTLDTSKKSSSLLITASRAADTASYFCAADNYGQNFVFGPGTRLSVLP
notes: also called TCR having feature (F)
B5: TCR2-1 (TCR, V domains shown)
V domain 1: EAQVTQNPRYLITVTGKKLTVTCSQNMNHEYMSWYRQDPGLGLRQIYYSMNVEVTDKGDVPEGYKVSRKEKRNFPLILESPSPNQTSLYFCASSPGLAGGVEQFFGPGTRLTVLE
V domain 2: RKEVEQDPGPFNVPEGATVAFNCTYSNSASQSFFWYRQDCRKEPKLLMSVYSSGNEDGRFTAQLNRASQYISLLIRDSKLSDSATYLCVVNIGFGNVLHCGSGTQVIVLP
notes: also called TCR having feature (C)

Molecular target: PE-labeled HLA-A*02:01/Taxp11-19 ([…]) tetramer (human; HTLV-1)
Assay: tetramer staining of TCR-transduced human PBMCs, flow cytometry

| Binder | percent TCR-positive (tetramer-positive) CD4-positive cells among transfected cells | percent TCR-positive (tetramer-positive) CD8-positive cells among transfected cells |
| --- | --- | --- |
| B1 | ≥ 5% | ≥ 10% |
| B2 | ≥ 5% | ≥ 10% |
| B3 | ≥ 5% | ≥ 10% |
| B4 | ≥ 5% | ≥ 10% |
| B5 | ≥ 5% | ≥ 10% |

Reference: patent US20200360435A1 (MIE UNIVERSITY, published 2020)
